Measured values published in the RNAGym collection of RNA variant scans (doi:10.1021/acssynbio.7b00057).

B1: Pistol ribozyme (parent)
chain: GGGUCGUUGUUCCAUAAUCGCGUGGAUAUGGCACGCAAGUUUCUACCGGGCACCGUAAAUGUCCGACUGGAGCCGUUCGGGCGGCUAUAAACAGACCUCAGGCCCGAAGCGUGGCGGCACCUGCCGCCGGUGGUAAAAAAGAUCGGAAGAGCACACGUCU

Variants of: B1
Assay: aptazyme ON/OFF ratio, guanine; higher = stronger switching; co-transcriptional cleavage with and without guanine

Point of comparison: GGGUCGGCAAGCUAUAAUCGCGUGGAUAUGGCACGCAAGUUUCUACCGGGCACCGUAAAUGUCCGACUGGAGCCGUUCGGGCGGCUAUAAACAGACCUCAGGCCCGAAGCGUGGCGGCACCUGCCGCCGGUGGUAAAAAAGAUCGGAAGAGCACACGUCU [U7G U8C G9A U10A U11G C13U], “aptazyme ON/OFF ratio” value 1.23. Against it:
- GGGUCGGCACUUAAUAAUCGCGUGGAUAUGGCACGCAAGUUUCUACCGGGCACCGUAAAUGUCCGACUGGAGCCGUUCGGGCGGCUAUAAACAGACCUCAGGCCCGAAGCGUGGCGGCACCUGCCGCCGGUGGUAAAAAAGAUCGGAAGAGCACACGUCU [U7G U8C G9A U10C C12U C13A] — lower, 1.15
- GGGUCGGCACUUUAUAAUCGCGUGGAUAUGGCACGCAAGUUUCUACCGGGCACCGUAAAUGUCCGACUGGAGCCGUUCGGGCGGCUAUAAACAGACCUCAGGCCCGAAGCGUGGCGGCACCUGCCGCCGGUGGUAAAAAAGAUCGGAAGAGCACACGUCU [U7G U8C G9A U10C C12U C13U] — lower, 1.08
- GGGUCGGCACUUGAUAAUCGCGUGGAUAUGGCACGCAAGUUUCUACCGGGCACCGUAAAUGUCCGACUGGAGCCGUUCGGGCGGCUAUAAACAGACCUCAGGCCCGAAGCGUGGCGGCACCUGCCGCCGGUGGUAAAAAAGAUCGGAAGAGCACACGUCU [U7G U8C G9A U10C C12U C13G] — lower, 1.11
- GGGUCGGCACUCCAUAAUCGCGUGGAUAUGGCACGCAAGUUUCUACCGGGCACCGUAAAUGUCCGACUGGAGCCGUUCGGGCGGCUAUAAACAGACCUCAGGCCCGAAGCGUGGCGGCACCUGCCGCCGGUGGUAAAAAAGAUCGGAAGAGCACACGUCU [U7G U8C G9A U10C] — higher, 3.27
- GGGUCGGCAAGCAAUAAUCGCGUGGAUAUGGCACGCAAGUUUCUACCGGGCACCGUAAAUGUCCGACUGGAGCCGUUCGGGCGGCUAUAAACAGACCUCAGGCCCGAAGCGUGGCGGCACCUGCCGCCGGUGGUAAAAAAGAUCGGAAGAGCACACGUCU [U7G U8C G9A U10A U11G C13A] — lower, 1.13
- GGGUCGGCAAGCGAUAAUCGCGUGGAUAUGGCACGCAAGUUUCUACCGGGCACCGUAAAUGUCCGACUGGAGCCGUUCGGGCGGCUAUAAACAGACCUCAGGCCCGAAGCGUGGCGGCACCUGCCGCCGGUGGUAAAAAAGAUCGGAAGAGCACACGUCU [U7G U8C G9A U10A U11G C13G] — lower, 1.04
- GGGUCGGCACUGGAUAAUCGCGUGGAUAUGGCACGCAAGUUUCUACCGGGCACCGUAAAUGUCCGACUGGAGCCGUUCGGGCGGCUAUAAACAGACCUCAGGCCCGAAGCGUGGCGGCACCUGCCGCCGGUGGUAAAAAAGAUCGGAAGAGCACACGUCU [U7G U8C G9A U10C C12G C13G] — lower, 1.19
- GGGUCGGCACUGUAUAAUCGCGUGGAUAUGGCACGCAAGUUUCUACCGGGCACCGUAAAUGUCCGACUGGAGCCGUUCGGGCGGCUAUAAACAGACCUCAGGCCCGAAGCGUGGCGGCACCUGCCGCCGGUGGUAAAAAAGAUCGGAAGAGCACACGUCU [U7G U8C G9A U10C C12G C13U] — higher, 1.28
- GGGUCGGCACUGAAUAAUCGCGUGGAUAUGGCACGCAAGUUUCUACCGGGCACCGUAAAUGUCCGACUGGAGCCGUUCGGGCGGCUAUAAACAGACCUCAGGCCCGAAGCGUGGCGGCACCUGCCGCCGGUGGUAAAAAAGAUCGGAAGAGCACACGUCU [U7G U8C G9A U10C C12G C13A] — lower, 1.12
- GGGUCGGCACUCGAUAAUCGCGUGGAUAUGGCACGCAAGUUUCUACCGGGCACCGUAAAUGUCCGACUGGAGCCGUUCGGGCGGCUAUAAACAGACCUCAGGCCCGAAGCGUGGCGGCACCUGCCGCCGGUGGUAAAAAAGAUCGGAAGAGCACACGUCU [U7G U8C G9A U10C C13G] — lower, 1.08
- GGGUCGGCACUCAAUAAUCGCGUGGAUAUGGCACGCAAGUUUCUACCGGGCACCGUAAAUGUCCGACUGGAGCCGUUCGGGCGGCUAUAAACAGACCUCAGGCCCGAAGCGUGGCGGCACCUGCCGCCGGUGGUAAAAAAGAUCGGAAGAGCACACGUCU [U7G U8C G9A U10C C13A] — lower, 1.07
- GGGUCGGCACUGCAUAAUCGCGUGGAUAUGGCACGCAAGUUUCUACCGGGCACCGUAAAUGUCCGACUGGAGCCGUUCGGGCGGCUAUAAACAGACCUCAGGCCCGAAGCGUGGCGGCACCUGCCGCCGGUGGUAAAAAAGAUCGGAAGAGCACACGUCU [U7G U8C G9A U10C C12G] — higher, 1.29
- GGGUCGGCACUUCAUAAUCGCGUGGAUAUGGCACGCAAGUUUCUACCGGGCACCGUAAAUGUCCGACUGGAGCCGUUCGGGCGGCUAUAAACAGACCUCAGGCCCGAAGCGUGGCGGCACCUGCCGCCGGUGGUAAAAAAGAUCGGAAGAGCACACGUCU [U7G U8C G9A U10C C12U] — higher, 1.37
- GGGUCGGCACUACAUAAUCGCGUGGAUAUGGCACGCAAGUUUCUACCGGGCACCGUAAAUGUCCGACUGGAGCCGUUCGGGCGGCUAUAAACAGACCUCAGGCCCGAAGCGUGGCGGCACCUGCCGCCGGUGGUAAAAAAGAUCGGAAGAGCACACGUCU [U7G U8C G9A U10C C12A] — lower, 1.18
- GGGUCGGCACUAAAUAAUCGCGUGGAUAUGGCACGCAAGUUUCUACCGGGCACCGUAAAUGUCCGACUGGAGCCGUUCGGGCGGCUAUAAACAGACCUCAGGCCCGAAGCGUGGCGGCACCUGCCGCCGGUGGUAAAAAAGAUCGGAAGAGCACACGUCU [U7G U8C G9A U10C C12A C13A] — lower, 1.12
- GGGUCGGCACUAUAUAAUCGCGUGGAUAUGGCACGCAAGUUUCUACCGGGCACCGUAAAUGUCCGACUGGAGCCGUUCGGGCGGCUAUAAACAGACCUCAGGCCCGAAGCGUGGCGGCACCUGCCGCCGGUGGUAAAAAAGAUCGGAAGAGCACACGUCU [U7G U8C G9A U10C C12A C13U] — lower, 1.19
- GGGUCGGCACUAGAUAAUCGCGUGGAUAUGGCACGCAAGUUUCUACCGGGCACCGUAAAUGUCCGACUGGAGCCGUUCGGGCGGCUAUAAACAGACCUCAGGCCCGAAGCGUGGCGGCACCUGCCGCCGGUGGUAAAAAAGAUCGGAAGAGCACACGUCU [U7G U8C G9A U10C C12A C13G] — lower, 1.14
